# Article PMC4516936 (Toxins, 2015)
# B1: CTA2/CTB5 complex (complex)
# chain 1: MSNTCDEKTQSLGVKFLDEYQSKVKRQIFSGYQSDIDTHNRIKDEL
# chain 2: TPQNITDLCAEYHNTQIYTLNDKIFSYTESLAGKREMAIITFKNGAIFQVEVPGSQHIDSQKKAIERMKDTLRIAYLTEAKVEKLCVWNNKTPHAIAAISMAN
# notes: copies: + 5
# How the values were obtained:
# [1] = biological target: cholera toxin A2 CTA2 (Vibrio cholerae) (UniProt P01555); experiment: SPR; settings: cited from earlier work
# [2] = biological target: cholera toxin A1 subunit (CTA1), reduced, free (UniProt P01555 19-212); experiment: SPR; settings: both partners purified
# Sequence of cholera toxin A1 subunit (CTA1), reduced, free (P01555 19-212): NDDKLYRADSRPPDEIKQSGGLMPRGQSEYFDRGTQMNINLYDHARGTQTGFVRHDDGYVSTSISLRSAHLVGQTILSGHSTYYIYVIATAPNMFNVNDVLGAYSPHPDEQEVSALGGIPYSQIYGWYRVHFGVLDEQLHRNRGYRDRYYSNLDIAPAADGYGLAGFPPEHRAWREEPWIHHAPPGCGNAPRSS
Molecule,Kd [1] [nM],kon [2] [M⁻¹ s⁻¹]
cholera toxin A1 CTA1 (from UniProt P01555),53,
B1,,521
